Some targets named below: c-Myc bHLH-ZIP (Homo sapiens (human), UniProt P01106-1 353-437); Max(S) (UniProt P61244-2 1-151); Max(L) (UniProt P61244 1-160).
Holding throughout (assay): SPR
Background: Surface plasmon resonance follows binding to a sensor surface in real time, without labels.

Chain of c-Myc bHLH-ZIP (P01106 368-452): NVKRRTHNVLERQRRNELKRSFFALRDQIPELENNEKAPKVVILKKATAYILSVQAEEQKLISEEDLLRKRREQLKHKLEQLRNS

B1: biotinylated E-box oligonucleotide (dsDNA)
DNA 1: TGAAGCAGACCACGTGGTCGTCTTCA
DNA 2: TGAAGACGACCACGTGGTCTGCTTCA
Take B1: the values for the binding result with c-Myc bHLH-ZIP, with Max(S) and with Max(L) were “no binding”, “no binding” and “binds”, respectively.

The values above are taken from PMC4537179.
